Measurements: the DeepSol protein solubility set

Experiment: soluble on expression in E. coli; label from the status in PepcDB or PDB records

| Sequence | soluble on expression in E. coli |
| --- | --- |
| MGSDKIHHHHHHMASVMSNNNNNNNNNNASYMFTNPLSNTGGGLINEIKDAINEMEQLKVLELKQICKSLDLSITGKKAVLQDRIKQFLRKSCDIGHIDPWRPKAIKILIAKVRINSSLPKYSTLWETLKTGAFKHPVASGQLPVTALQSTALPPYSQQQALAYSFTSPFYKPIVQIPDANKKLKQSAGRGCTKMKFKVSKSNHDLLKSNKSYKLYLFSGFSIPFIYETVGHEAIDFPYPCELVFNGTKLEDNVKGLKKQNGTGNPANLTPYLKVPTEMNHLDLHYLNIDKEYSISCFIVEVFSPEALLGKILKRPKIIKQATTAYIKRTLNEQDDDDIITTSTVLSLQCPISCTRMKYPAKTDQCKHIQCFDALWFLHSQSQVPTWQCPICQHPIKFDQLKISEFVDNIIQNCNEDVEQVEISVDGSWKPIHNSSAVITDTVNQNHSVKNENQGTVKQEQDYDSRNAFDTNLRNGSNHNEPEIISLDSSDDEAFIPASKSFPTHVNPRNDQLRADIFPSESEGSSDYNPNHTSTPKGSPTMDQDNYQDAFQMRSFLNQGATTNINDTPTNNSSINSFVTATNGDSRIFYNRGPSTPLLPAVLQNLTNQTEAQRNPYGPNYNTTAQDRNLLGIEGDLPPIPPVDPNSEAETELPTRTTSAAHLPPYIHVSTSGHGDDGKIRKRRHSNVSIYIPKNPYATLMKRRPQANHAIMNKTLAQTNDFNTSAQDNSEVVDLTSD | not soluble |
| MGSDKIHHHHHHMSFDAMNTTLSLNTSAGSQALTVRDPWALVPSLGDLNAYIAAVNRLPMLTLEEEQSLGQRLRDEHDLEAAGRLVLSHLRLVVSVSRQYLGYGLPHGDLIQEGNVGLMKAVKRFDPSQGVRLVSYALHWIKAEIHEYVLRNWRMVKLATTKAQRKLFFNLRSMKQGFKGDATDSDLHRSTLTDAEIDIVASELKVKREEVIEMETRLSGGDVALDPQTDDGDESYAPIAYLADDRHEPTRVLDAQRRDALAGDGIGEALDVLDARSRRIVEERWLKVNDNGSGGMTLHELAAEYGVSAERIRQIEVAAMKKMRKALAAYA | not soluble |
| MPQSKFRLCSTKGTSMFSHIMIGSNDIEKSKVFYDAILSVLGYPAGVIDAKGRCLYINQDGVLGITKPVNGEPATHGNGMTIGFKVSSPELVEAWHAAGLANGGVACEDPPGIRTSGQRKMYLAYLRDPAGNKLCATHHMSTGN | not soluble |
| YDPYQHIEKATNRRNMVLNAMVETGDITKAEGDKYKATKIVLNDQSKDPLANKYPWYVDAVINEAVNEADITQDEIMQKGY | not soluble |
| MAKVLVLNASYEPLNITSWQRAVVLLIKGKAEQVEHNGKMVYNNFPLPTVIRLRHYVVTPYKEIPLTRRNILHRDGHSCQYCGYTGDELTLDHVIPKSRGGGETWENIVTACVRCNVKKGNRTPKEANMPLRQTPRRPISSLYFEVTKHVRTGTHQEWRKYVIGALEHHHHHH | not soluble |
| MGSDKIHHHHHHMDDFSEILARKRQGSLKVYLGYAAGVGKTYAMLQEAHRLAREGLDVVIGYVEPHDRADTLALVEGLEQVAPRKVAIAGSDFTEMDVPGIIARRPQVVLVDELAHTNAAGSENGKRYQDVLKVLEAGINVITTLNVQHLESVAERVESVAGVRVQERLPDAILRRADQVVNVDLTKEDLRERLRQGRIYSPEQAERALGGFFSYRNLSFLRELCLREASGDQVRKIEEQEHFPRHSAGDVIEGVMVALSSSPTDAETLIRRGVRIAHQMGSPCYVVYVQRPSENPTRIDSGLQRVLQGNLRLATQLGAEVVQLAGGDIAETLANFASERNVRHAVFGKSRLSPLLERVRGSFILEFLHDAVGVDVHIVNTTPRQPGQERA | not soluble |
| AEWSGEYISPYAEHGKKSEQVKKITVSIPLKVLKILTDERTRRKVNNLRHATNSELLCEAFLHAFTGQPLPDDADLRKERSDEIPEAAKEIMREMGINPETWEY | soluble |
| MPNDVDNTKITLSLGKCGYLPQDVRTMTKFDKNTKQIRTFAFVEFSNRETAEQWMTDYEGWLTLDDGRTLAVEYAKGDPAAGSGNKGDDWICAHCSMNNFVKRQTCFKCEISKDQSMELEKLGAHMVGMTPCDTLLIRGLPDGINNSLIFDSLGALVCLSSISMIKLSESKRFAYLQMKSADEAKMLLNLTYKSPIRIKDKDVQVSWCRDSMSKLIQQQMTMLTAGPGKNSVATGSLAQGNMTGAEIAAAALSKANAVRQASQQVGQIMTGLPAPAANMIPPNFSVPPPNLSVPPPMQATQPEHQNGVIGMTQTPKGLLPRYLPPNPLTFAHDPNLGYYVDPITKFCYDSATGYYFNNATSQWCNWDLTHHTYFPVETPAVINSADPEEEKMKKNEEGPKTAQDLVKDMAKWAKRQEKDKKKVQISIKGKETKGIELKNVFSNEKQKRIAQTAALFDDDEEEDQEEEVRGRRSEEPSTSSSFSSVPLAPRKSTLQDVRDAMERALYDETKKTCMLCKRAFSDVEVLRKHVEKSDLHRNNLEAKRAEWGRETAAKLQEEEEDASAPDLPKIVYRDRAKERRRQFGIDSTGYAFDVMGGPPGPTSVRHEETIRKVSEEASKRPLDESNIGNRLLKSMGWKEGQGVGKHAQGIVNPIEAERFVQGAGLGAAGSKMRHGAEASHKEKTRQALYSRYHDA | not soluble |
| MKYKKLLFDLIDYLDAFESLHDGGSHEPEIKDFADFLSWRCGKKKKQEEEVVSVTRERAAGAKNIARGVSLLHRYSRFYIKKALTESPLQTEDEYTYLVSLMNGESMTKTELNNLNAMEKTSGAEVMRRLLKANLIEQRPDEEDRRSMRVSITPEGRKVLVNLFPNLRLCAETLVSALSDEQLTAFDHLLWLLCECHNEMFTGKHDAELTDLHAETCGLKQSAGGALSKRLYRR | not soluble |
| MSLVKDIYSESIQIQIAASSMLSENITNATQMVMQCLLGGNKVIACGVSRSYANAQFLVSNLLNRYDLVRPSFPSVLLSLESAVGSSLVFEQPPEELYCHQFNASAKSGDLLIAFAPLGTEKIVLNIISHAVSKEVNVIVLTGSNNDAIQGILADKDLEISIPATKESRILENHLFVINALCELVDQTLFPSAEGGSHHHHHH | soluble |
| MVVRTWRSMQERYNLIGSKCKTCGTVYFPARSVCPECRRKGELEDYKLNGKGKVYTYSVVYAAPKDFEKQSPYVIGIVELEEGTKITSQIDCEPEEVKIGMPVEATFRKIREDGCDGVISYGYKFVPTEQ | not soluble |
| MDMESQKILFALSTPMEIRNECCLPSHSSPKMYLGTCFFDLSSSWGIDDRDDLLRTIHRMIDNGHAARLAGFYHRWFRYSPCEWRDYLAELNEQGQAYAQFVASTAECCGEGGIKAWDYVRMGFLSRMGVLNNWLSEEESLWIQSRIHLRALRYYSNWRQYFAGYTFGRQYWQSPEDDHLPLLREFLARKEYDDSGNDMFYQLFASDDAYYPTLSWQPLAYYSACPETLKDMSDL | not soluble |
| GPYLVIVEQPKQRGFRFRYGCEGPSHGGLPGASSEKGRKTYPTVKICNYEGPAKIEVDLVTHSDPPRAHAHSLVGKQCSELGICAVSVGPKDMTAQFNNLGVLHVTKKNMMGTMIQKLQRQRLRSRPQGLTEAEQRELEQEAKELKKVMDLSIVRLRFSAFLRDSDGSFSLPLKPVISQPIHDSKSPGASNLKISRMDKTAGSVRGGDEVYLLCDKVQKDDIEVRFYEDDENGWQAFGDFSPTDVHKQYAIVFRTPPYHKMKIERPVTVFLQLKRKRGGDVSDSKQFTYYPLV | soluble |
| MSYEDWAGGIRCSECGREYTGIECPICRQADPTEREVVTEHGNGRGDQQPPENGTVSADSGVYDIDKIEHERHTDAEKVNPEVVDPSDYVTRAVSGVVFNKRHAWKAENRADEDNPPSLFVVTTADSEFNWIEIPLWDDAEGAMEDISIGDPIQAEGKLSKDNGVHNIHVHSQDSIDILTEPPEVKFDSMAIDQITSTTPKVDLEGTVERVGEIKDIQLDDEKVKLREIHVSDLNNDQIQVALWRTNAYEKVAPGDEIIIAGGLAKPHNEKVVVRVGWSGHIGYRSSLEHHHHHH | not soluble |
| MSLGDKKYVKRLLGSCWDYPFSGSGVGITEREAVLRAFGEYTERFIGMYYQFIARDKMIFATYRDLDKMGLNALSPHSIQLFHKRQYQQKDFPYSKFCEDSLIKWMPGKSLITNEEVYVPASFVLTPYIPERGENLISPSVTTGSAAHSNLTQAIINGIYEVIERDTARIYWYGNLRSTKLKVDNKDIKDFIDFIKNKKDIEVIITYMENDLNIPTFMASIIIGKNNRKSVVTGLSSNINPINGLKKAITEAFHTYLWKLLTQPSPKQQLENFTDHVALYLDPKMYIHFIDFINSNEELSLQSLILASAVYSFDSAERHLNMLIRLLKNKVLDLIVVDITPEILRKTGIHVVKVIIPPLLSILAGHIQYLGDKRLYNEGHHHHHH | not soluble |
| MGHHHHHHSHSTKDRKIIPLKMCFAARNLSMPDLENRLIELHSPDSRNTLILRCKDTATAHSWFVAIHTNIMALLPQVLAELNAMLGATSTAGGSKEVKHIAWLAEQAKLDGGRQQWRPVLMAVTEKDLLLYDCMPWTRDAWASPCHSYPLVATRLVHSGSGCRSPSLGSDLTFATRTGSRQGIEMHLFRVETHRDLSSWTRILVQGCHAAAEL | not soluble |
| VIGYEYPDWIWGWTNTVTYKNFTLSFTLDGRVGGMAHSKTNQAMWNSGAHIDSDNQWRYDEVVNKKTNFVGSGVKVVSGSVDYDSNGKIIHDNRVFAPNDVQVSYESYMKSTNPYIGTVTRQNVFDETFFKLRDLSLSYQMPKSVCDKLHMKGLTLAFVGQNLFVWTKEFRFTDPDSDSDNLSSPSTRYLGFNVKLDF | not soluble |
| HLPKPTLWAEPGSVITQGSPVTLRCQGGQETQEYRLYREKKTAPWITRIPQELVKKGQFPIPSITWEHAGRYRCYYGSDTAGRSESSDPLELVVTGAYIKPTLSAQPSPVVNSGGNVTLQCDSQVAFDGFILCKEGEDEHPQCLNSQPHARGSSRAIFSVGPVSPSRRWWYRCYAYDSNSPYEWSLPSDLLELLVLG | soluble |
| MAHHHHHHMSTSTTHVQKETILSLNYYEIFSLDPSARDVDFGSVHRAYRRFALLFHPDKDPSPAARAAFERVKLAAETLTDPQMRREYDEELLQKLQRSTGTGATSAWQRQQRDVMEEEALAADMILRQKEAATAAKAAAKREEELEKEAAAKQMLHELTNALTTPFKRMEEELVHEWEIDEDLLSMKEKEVESLLQKLREYNEGQGRHGRSVDAHTCGTKRRRSEEETASKV | soluble |
| MTELEEIGININSIENTEQIISQLMDNYSDDVLHLVFSYVKNRTTAEDLTQEIFIKCYEKLDQFNNKSSIKTWLYRIAINHCKDYLGSWHYRKLNFSEKIWNYLPSKSKHVEEEIIAKDVANSLMSAVMDLPVKYREVVFLHYYEELSLANISKITGVNSNTLKTRLKHARELLKTKMKKEV | not soluble |
| SAEASSANLGSGCEEKRHEGSSSESVPPGTTISRVKLLDTMVDTFLQKLVAAGSYQRFTDCYKCFYQLQPAMTQRIYDKFIAQLQTSIREEISDIKEEGNLEAVLNALDKIVEEGKVRKEPAWCEAQRCRVQQRCSLCVQAGGQRGSEETQALPVSMAGSPSPLPGSPGAQEGGV | soluble |
| MAPDLSGTWYVLEGDPGEHLVVEALGERLSGIWTSRELAEAFLAHHPHLGMRVSALESRALKEAYLRALGMLQVEAVMVDYRPGTHRAQVARVKDLLEEVRRA | soluble |
| MAHHHHHHMCLDWKYNYMKTRLKVLENNEKDEEIERKLQNNLNIKSLGYVLKAIEILKRKEKMKRYSTFDRHLSYFKKNNINKPQYNEKKILEHRLWAIGCELIEVIGDGNCLFRSISRNLFHKQKYHMYVRKKCVEYMINYKEEYSIYFENNEFQQYIKNMSKNGYWGDELCIKATADAFDCIIYIITSTLENWHLKYESKNNNGMYKKCVFLAYSSPTHYDCFKLMQR | not soluble |
